Data set [1] in a line: amyloid nucleation score (Sup35N fusion, yeast selection) (log enrichment); library NNK2; higher = more nucleation; inactive = no reads after selection. Put shortly: (§1)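 The nucleation score is the DiMSum log enrichment of output over input reads, centred on the mode score of non-aggregating sequences. Only sequences with 100 or more input reads were scored, using Illumina sequencing of input and output plasmid inserts. Psi-negative yeast expressing Sup35N fused to peptides of 20 random codons were induced 24 hours with 100 μM copper sulfate and grown 7 days at 30°C on medium lacking adenine and uracil.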

Data set [2] can be described thus: amyloid nucleation score (Sup35N fusion, yeast selection) (log enrichment); library NNK3; higher = more nucleation; inactive = no reads after selection. Put shortly: as §1

± gives the uncertainty stated by the source.

In data set [1], MVFKRPHVWFDTTTFEFGMV yielded an amyloid nucleation score of 0.732 ± 0.43.
On the same count and under the same terms, the figure for QFRPLDCCLLNFDDSRIYCL is 4.88 ± 0.074.
KCWNRYKHSDDIYGVGFPSI gave an amyloid nucleation score in data set [1] of -1.09 ± 1.
The same measure, in the same setting: as for KKVRNC, the figure is 0.436 ± 0.8.
On the same count and under the same terms, the figure for GLNLSREYYNLFEVEVHADT is -0.178 ± 0.55.
Take EYDSYSKIYWHISLAVFILI: in data set [2], the amyloid nucleation score result is “inactive”.
For the substance LWLFIAY, the amyloid nucleation score result in data set [2] was “inactive”.
The same measure, in the same setting: as for AMLLCTYFRKAVYLNAK, the entry is “inactive”.
For the substance PCYCSFVSRSYYCKDYVRNS, the amyloid nucleation score result in data set [2] is “inactive”.
With LSGPRYLVVKSGCACRDSFR, in data set [2], the amyloid nucleation score result is “inactive”.
Turning to MRRVGIWYVRR, the amyloid nucleation score result in data set [2] is “inactive”.
GGWIY: the amyloid nucleation score result in data set [2] was “inactive”.
SSGFSKSKYYICVLQFVGVV: in data set [2], the amyloid nucleation score result was “inactive”.
Turning to DIIVKQLPKRYGPTMSIRNM, in data set [2], the amyloid nucleation score is -0.057 ± 0.58.
On the same count and under the same terms, the entry for IKGFRGLLFEVSYHSPELGW is “inactive”; for VGGQWGAYAAKA it is “inactive”.
Take FTWSVHKVDEVCHLLETGDA: in data set [2], the amyloid nucleation score entry was “inactive”.
Consider IVYREVCVFVNM, for which the amyloid nucleation score in data set [2] was determined as 1.78 ± 0.063.
In the case of MMGTSWDWRYRYLRLRGEEC, the amyloid nucleation score result in data set [2] is “inactive”.
Same read-out and setting: as for YQFDFTF, the entry is “inactive”.
The same measure, in the same setting: the entry for LYNVYGSRA is “inactive”; for MKTSNYMVRQCAGIPASTNR it is “inactive”; for ALTLMCFSVLGFYYVVMYCF it is “inactive”.
FLDPYSHRLSAKALYM: the amyloid nucleation score result in data set [2] was “inactive”.
Regarding FPVARAIATMGWHIGALFLN, the amyloid nucleation score entry in data set [2] is “inactive”.
Take ISDTYSWCRYLVIGNYAQLG: in data set [2], the amyloid nucleation score was 0.463 ± 0.23.
In the case of DDECELNMRYNGREYQGTDG, the amyloid nucleation score result in data set [2] was “inactive”.
As to WIRDFYEFAEWSSDTCGIRI, the amyloid nucleation score entry in data set [2] was “inactive”.
Same read-out and setting: as for ASWKLITCQNSAFR, the entry is “inactive”; as for HDDISISESIFRRLQIRVIL, “inactive”; as for MHANLLGVQSVLLDRVEVMW, “inactive”.
On the same count and under the same terms, as for HWGHVHLVIRLPVMPDSDNR, the entry is “inactive”; as for IYIKCFNVSFLRSADWSKCA, “inactive”.
Take LDNVKDVRYWIVCTQWWNRV: in data set [2], the amyloid nucleation score result was “inactive”.
In data set [2], NGSNFFDCSQFLCSFGGDVV returned an amyloid nucleation score of 2.45 ± 0.072.
With IQDLEASRFGSIVIALDNCS, the amyloid nucleation score entry in data set [2] was “inactive”.
For the substance LVYLSASFVW, in data set [2], the amyloid nucleation score came out at 0.108 ± 0.67.
As for NLEGRKRLMILVFKCCELAI, the amyloid nucleation score result in data set [2] is “inactive”.
The same measure, in the same setting: as for NYYNQT, the entry is “inactive”; as for SSKNINVILMIKR, 2.05 ± 0.066.
As to YLVSDE, the amyloid nucleation score entry in data set [2] is “inactive”.
Take IWFSLLVPDLPRIIGSLYIS: the amyloid nucleation score result in data set [2] is “inactive”.
Same read-out and setting: the figure for YKSPFTGNCLYTVVIKDINL is 1.55 ± 0.085.
The same measure, in the same setting: as for HTTIQETFVRIPRLCRWHRR, the entry is “inactive”; as for MYPYAITVTGMFLLVPSCLD, “inactive”.
Still for that read-out and setting: as for FNARLFISLLIKDRK, the entry is “inactive”.
Take LHSVGVPMAPVKGTMWERER: in data set [2], the amyloid nucleation score result is “inactive”.
Take MSEKASSEVKINRDAGLGAF: the amyloid nucleation score entry in data set [2] was “inactive”.
On to KTPLSSSCRKILIINTPRGM, for which, in data set [2], the amyloid nucleation score entry was “inactive”.
On to YELFS, for which, in data set [2], the amyloid nucleation score turned out to be 0.922 ± 0.11.
For the substance ESADATLREAKSSVYKKYRY, the amyloid nucleation score result in data set [2] was “inactive”.
On the same count and under the same terms, as for GYSRG, the entry is “inactive”.
For the substance ELCTVLIVRFSRGSERLKNE, the amyloid nucleation score entry in data set [2] is “inactive”.
Turning to DSKVLSFSWAMFMLIM, the amyloid nucleation score result in data set [2] was “inactive”.
Same read-out and setting: the entry for QRFYILPRQCNALKGIITSL is “inactive”; for CWEFYVVLYRLLGICKIRVL it is “inactive”.
The same measure, in the same setting: the entry for SPLNQVSGYIMFWYSGT is “inactive”; for DNICIYWALDGIYECSRHSR it is “inactive”; for LEYDRTFKILFCGGSGWHYS it is “inactive”.
Consider ESVCYLFCYSHYLGNYGYGS, for which the amyloid nucleation score entry in data set [2] is “inactive”.
As for GINDLISSALNNSRRLRTVG, the amyloid nucleation score entry in data set [2] was “inactive”.
On to SSAGVGVAKVGARHRLRRCW, for which the amyloid nucleation score entry in data set [2] was “inactive”.
The same measure, in the same setting: as for FWMMDYMYSVRMNFVWGYIR, the entry is “inactive”; as for RLWHLLFLHNRYHVVFNSIL, “inactive”; as for WAAWFYASGVRASEGRDYGG, “inactive”.
For LWEVRSEPDPDSSNKLLSRE, the amyloid nucleation score in data set [2] amounted to 0.136 ± 0.39.
As to SRPLHFVYVIWGCPDQSDRN, in data set [2], the amyloid nucleation score result is “inactive”.
As for LLSIYCY, the amyloid nucleation score result in data set [2] was “inactive”.
On to YFMIDRPALRLVDKKCGSRS, for which the amyloid nucleation score entry in data set [2] is “inactive”.
RSIHYSYWCIYGNIRDTVRS: the amyloid nucleation score result in data set [2] is “inactive”.
On the same count and under the same terms, as for SFLSYCC, the entry is “inactive”; as for WVFLNRAQQHSNVLPSQGLV, “inactive”.
SIFFNVVLFWGVWELTQGNR showed an amyloid nucleation score in data set [2] of 0.803 ± 0.27.
On to TRILVRTGYHLLFLEG, for which, in data set [2], the amyloid nucleation score result is “inactive”.
Take SPLKIMH: in data set [2], the amyloid nucleation score result was “inactive”.
Still for that read-out and setting: the figure for TVIVCVTFLRGWVSSACGLS is 0.045 ± 0.8; for LCITIVSRWVVGVFHQMFYT it is -0.219 ± 0.68; for YVTLYLDTGSCYLSLGCGAG it is 0.758 ± 0.22.
In the case of GVLASIKELH, in data set [2], the amyloid nucleation score entry is “inactive”.
Consider MYFFSHPPSNRRE, for which the amyloid nucleation score entry in data set [2] was “inactive”.
In the case of FSSLGANYNHEILKGCGVGS, the amyloid nucleation score result in data set [2] was “inactive”.
Turning to NNVTSIN, the amyloid nucleation score in data set [2] was -0.821 ± 1.1.
As for IVILPM, the amyloid nucleation score entry in data set [2] is “inactive”.
Substance FHMIECGVYAKHLGHCTRYI yielded an amyloid nucleation score in data set [2] of -0.079 ± 0.33.
Still for that read-out and setting: as for TLFVA, the entry is “inactive”; as for LLISDMGFNIVVLMTVSCFY, 0.049 ± 0.29; as for TPNARSNPSNRPVSSTRARS, “inactive”.
With VNFACSIGGRGLFGFGIKVS, the amyloid nucleation score entry in data set [2] is “inactive”.
Substance DFAVGLLVHWHNPHYNTELQ displayed an amyloid nucleation score in data set [2] of 1.25 ± 0.13.
SWVFFD: the amyloid nucleation score result in data set [2] is “inactive”.
For IKFVPRA, the amyloid nucleation score entry in data set [2] was “inactive”.
Same read-out and setting: as for IVYLAVFRWGSMSKSRFGFD, the entry is “inactive”; as for ACTLDTLFSFVPSHNWSGQK, “inactive”; as for DRFSYFAIFPWYRMCYGMLE, “inactive”.
Regarding MLARHCQQGGRDHPWLGSVL, in data set [2], the amyloid nucleation score result was “inactive”.
In the case of LVALVRECT, in data set [2], the amyloid nucleation score entry is “inactive”.
Consider PLSSSLGWVCL, for which the amyloid nucleation score entry in data set [2] is “inactive”.
Turning to HYSAREWLLLCIMVCDVVVW, the amyloid nucleation score entry in data set [2] is “inactive”.
Same read-out and setting: as for LFSQCSLITHG, the entry is “inactive”.
In turn, DSSSWSHL gave an amyloid nucleation score in data set [2] of -0.291 ± 1.4.
In turn, TPLTPSGRLGFLTK registered an amyloid nucleation score in data set [2] of 0.7 ± 0.21.
The same measure, in the same setting: the entry for SNRNRTTNMNHEPLANYSFN is “inactive”; for MSNMWKEYALALVVGLSFRL it is “inactive”; for TTTRIAMYWYEYMSGCASHY it is “inactive”.
On to IKIMHLSQPMDSMSLLHHG, for which the amyloid nucleation score entry in data set [2] was “inactive”.
The same measure, in the same setting: the figure for NVLFLVNY is 2.42 ± 0.067; for TWFLTPLNTFIFLLVPLFGL it is “inactive”; for YLMSYGRWDRWKWWYFYRLW it is “inactive”.
Still for that read-out and setting: as for RVRIKTWYRMMGYMLCWCEL, the entry is “inactive”; as for YLRGVFLRYGG, “inactive”.
Same read-out and setting: as for EGFIVSRISAGDRSGDMEGC, the entry is “inactive”; as for RTRFFSQFSSL, “inactive”; as for SWSRYNDC, “inactive”.
LCSYGVGWD: the amyloid nucleation score entry in data set [2] was “inactive”.
As for LPAEMELVWHRRMNLP, in data set [2], the amyloid nucleation score result was “inactive”.
Consider FPRVTVPLVFSSIQESTSSE, for which the amyloid nucleation score result in data set [2] was “inactive”.
Take IQGLCCRHAEFKNY: the amyloid nucleation score entry in data set [2] was “inactive”.
TYSIISENIVVFFNRM had an amyloid nucleation score in data set [2] of 2.58 ± 0.059.
As to SLASRHIGHLLISFLLGYGA, the amyloid nucleation score entry in data set [2] is “inactive”.
Still for that read-out and setting: the figure for ECFEVEQGILDAHSNCWGNI is 0.778 ± 0.2; for VLRIFISWCSVQLSKRLWWT it is “inactive”; for RHQHKRGAV it is -0.982 ± 1.4.
On to SWAVRMAGEYFRNSDMMWCA, for which the amyloid nucleation score entry in data set [2] is “inactive”.
For the substance YFYWTCSDKRVTIEDVVPLH, the amyloid nucleation score entry in data set [2] was “inactive”.
Consider SFFVT, for which the amyloid nucleation score result in data set [2] is “inactive”.
Consider FARFSIAFMH, for which, in data set [2], the amyloid nucleation score came to 0.231 ± 0.9.
In data set [2], MMELQVAQLHTEGDRLKSRR yielded an amyloid nucleation score of -0.787 ± 2.4.
Take RRYYLRV: the amyloid nucleation score result in data set [2] is “inactive”.
On the same count and under the same terms, as for DLSIRKFHGGSMDSLNMEYM, the entry is “inactive”; as for FKGLVVMKGLLNMIGGGACH, 0.27 ± 0.4.
With SWWKDLVYD, the amyloid nucleation score result in data set [2] was “inactive”.
